One experiment has as its target T1, human lysozyme (human, UniProt P61626 19-148).
T1 construct: Bought; passed through Superdex 75 before SPR
T1 sequence (looked up): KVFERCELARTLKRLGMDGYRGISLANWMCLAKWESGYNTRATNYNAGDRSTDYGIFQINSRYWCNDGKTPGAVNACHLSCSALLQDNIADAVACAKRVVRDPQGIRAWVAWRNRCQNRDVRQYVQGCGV
Kind of experiment: phage ELISA, phage-displayed VL on immobilized human lysozyme.

Experiment [1] deals with T2, protein A (UniProt P38507 37-477).
T2 construct: Bought (Pierce); immobilized on CM5 chip by amine coupling; also called recombinant protein A
Briefly: SPR (Biacore 3000), VH over immobilized protein A. The method, then: Immobilizations were carried out at 50 μg/mL in 10 mM acetate buffer, pH 4.5, using the amine coupling kit supplied by the manufacturer (GE Healthcare). All measurements were carried out at 25° C. in HBS-EP buffer at a flow rate of 50 μL/min. Surfaces were regenerated by washing with the running buffer.

The target in experiment [2] is T2, protein A. Kind of experiment: SPR, KD of the mutant against KD of the wild-type VH on protein A.
A further experiment addresses T3, human serum albumin (human, UniProt P02768 25-609).
T3 construct: also called HSA
Briefly: SPR (Biacore 3000), VL over immobilized human serum albumin. The method, then:
(§1) The KD of the VL against human serum albumin was determined by surface plasmon resonance as described for other domains above. Briefly, the binding of the VL to immobilized human serum albumin was determined by SPR using the BIACORE 3000 (GE Healthcare). Approximately 1,600 RUs of human serum albumin, 1,900 RUs of bovine serum albumin and 2,200 RUs of ovalbumin were immobilized on a research grade CMS sensor chip. An ethanolamine blocked surface was prepared, as a reference, in exactly the same manner as the protein surfaces. Immobilizations were carried out at concentrations of 20 μg/mL in 10 mM acetate buffer pH 4.5 using the amine coupling kit supplied by the manufacturer. The VL was passed through a Superdex 75 column (GE Healthcare) to eliminate any possible aggregates prior to Biacore analysis. For the binding studies, analyses were carried out at 25° C. in 10 mM HEPES, pH 7.4 containing 150 mM NaCl, 3 mM EDTA and 0.005% surfactant P20. The flow rates used were 40 μL/min and sample volumes were 60 μL. For regeneration the surface was washed for 10 min with the running buffer. Data were analyzed with BIAevaluation 4.1 software.

A further experiment addresses T4, ovalbumin (UniProt P01012 2-386).
T4 sequence (looked up): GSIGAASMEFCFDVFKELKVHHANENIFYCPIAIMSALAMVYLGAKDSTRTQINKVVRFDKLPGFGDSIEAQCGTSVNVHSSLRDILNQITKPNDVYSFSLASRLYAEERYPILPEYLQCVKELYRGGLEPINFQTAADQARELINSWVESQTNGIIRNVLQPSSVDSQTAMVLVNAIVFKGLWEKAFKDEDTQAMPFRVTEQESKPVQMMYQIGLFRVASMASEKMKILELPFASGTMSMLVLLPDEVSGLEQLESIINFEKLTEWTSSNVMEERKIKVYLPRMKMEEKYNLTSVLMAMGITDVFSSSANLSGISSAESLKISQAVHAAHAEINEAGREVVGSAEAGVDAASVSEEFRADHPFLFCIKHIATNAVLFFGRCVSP
Kind of experiment: SPR (Biacore 3000), VL over immobilized ovalbumin (about 2,200 RUs). The protocol: as §1

In the next experiment the target is bovine serum albumin (bovine, UniProt P02769 25-607). Kind of experiment: SPR (Biacore 3000), VL over immobilized bovine serum albumin (about 1,900 RUs). The method, then: as §1
Sequence of bovine serum albumin (P02769 25-607 limits assumed): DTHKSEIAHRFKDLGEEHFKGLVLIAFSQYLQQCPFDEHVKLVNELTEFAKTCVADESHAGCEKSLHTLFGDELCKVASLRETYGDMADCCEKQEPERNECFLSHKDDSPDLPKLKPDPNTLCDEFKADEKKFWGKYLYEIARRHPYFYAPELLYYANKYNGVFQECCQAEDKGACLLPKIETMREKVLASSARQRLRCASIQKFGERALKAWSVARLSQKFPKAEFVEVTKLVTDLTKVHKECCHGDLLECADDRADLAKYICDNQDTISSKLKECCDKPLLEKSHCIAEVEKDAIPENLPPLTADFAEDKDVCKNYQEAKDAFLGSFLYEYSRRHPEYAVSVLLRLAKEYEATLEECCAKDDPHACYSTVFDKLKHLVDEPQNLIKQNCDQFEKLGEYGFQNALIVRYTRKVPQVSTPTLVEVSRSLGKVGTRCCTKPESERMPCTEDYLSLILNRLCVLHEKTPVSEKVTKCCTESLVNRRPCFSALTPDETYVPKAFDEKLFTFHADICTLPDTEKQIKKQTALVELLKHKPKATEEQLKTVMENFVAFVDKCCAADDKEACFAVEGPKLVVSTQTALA

The source of these data is patent publication US20170044238A1 (NATIONAL RESEARCH COUNCIL OF CANADA, published 2017).

T3 sequence (P02768 25-609 limits assumed): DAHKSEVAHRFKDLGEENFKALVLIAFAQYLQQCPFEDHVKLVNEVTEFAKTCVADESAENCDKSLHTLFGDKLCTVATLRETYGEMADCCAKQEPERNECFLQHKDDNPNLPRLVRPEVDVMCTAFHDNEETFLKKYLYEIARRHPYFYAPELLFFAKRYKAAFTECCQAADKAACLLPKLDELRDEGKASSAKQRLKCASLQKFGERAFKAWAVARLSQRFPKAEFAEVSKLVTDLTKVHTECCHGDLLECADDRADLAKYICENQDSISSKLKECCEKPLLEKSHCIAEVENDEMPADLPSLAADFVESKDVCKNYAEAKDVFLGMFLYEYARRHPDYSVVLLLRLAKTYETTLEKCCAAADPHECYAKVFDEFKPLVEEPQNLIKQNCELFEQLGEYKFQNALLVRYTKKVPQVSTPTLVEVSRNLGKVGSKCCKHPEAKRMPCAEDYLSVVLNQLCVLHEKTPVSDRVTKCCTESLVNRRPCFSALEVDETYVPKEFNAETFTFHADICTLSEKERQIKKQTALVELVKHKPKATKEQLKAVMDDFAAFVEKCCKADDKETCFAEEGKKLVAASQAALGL

B1: HVLHLFL (antibody, V domains shown)
VL: DIQMTQSPSSLSASVGDRVTITCLASQSIFLYLDWYQQKPGKAPKLLCFFASTLESGVPSRFSCSGSGTDFTLTISNLQPEDFATYYCQQSYSTPRTFGHGTKVTVL
notes: Anti-human lysozyme VL from the HVLP324S library; KD not determined
On to B1, for which, in the experiment with human lysozyme, the binding result is “binds”.

B2: HVHM81S (antibody, V domains shown)
VH: EVQLVQSGGGLVQPGRSLRLSCAASGFTFDDYAMHWVRQAPGKGLEWVCGISGSGASTYYADSVKGRFTCSRDNSKNTLYLQMNSLRAGDTALYYCARQSITGPTGAFDVWGQGTMVTVSS
notes: Cys49/Cys69 (Kabat) mutant of HVHM81; VH single-domain antibody; tag not specified
In the experiment with protein A [1], B2 registered a Kd of 2100 nM. For the same molecule, the “fold reduction in protein A binding (increase in KD) against wild-type HVHM81” value in the experiment with protein A [2] worked out at 1.6 fold.

B3: HVLHSA1 (antibody, V domains shown)
VL: DIQMTQSPSSLSASVGDRVTITCRASQSISTYLNWYQQKPGKAPKLLCFGASRLNSGVPSRFSCSGSGTDFTLTISNLQPEDFATYYCRQLFPLPDRRTFGHGTKVTVL
notes: Anti-human serum albumin VL single-domain antibody from the HVLP324S library (Cys48/Cys64); also called anti-human serum albumin VL; not shown: C-terminal His6 tag
B3: in the experiment with human serum albumin, binding was put at a Kd of 800 nM. For the same molecule, the binding result in the experiment with ovalbumin and with bovine serum albumin was “no binding” throughout.

B4: HVHPC235S (antibody, V domains shown)
VH: QVQLVESGGGLIKPGGSLRLSCAASGFSVISESMTWVRQAPGKGLEWVCAISSSGGSTYYADSVKGRFTCSRDNSKNTVHLQMNSLRAEDTAVYYCAAKKIDGARYDYWGQGTMVTVSS
notes: Cys49/Cys69 (Kabat) mutant of HVHPC235; VH single-domain antibody; tag not specified; also called HVHAmC235S; HVHP235S
With B4, the Kd with protein A [1] amounted to 3000 nM. Besides, the “fold reduction in protein A binding (increase in KD) against wild-type HVHPC235” value in the experiment with protein A [2] is 10 fold.
